Test results published in patent US12441790B2, “Binding proteins to the human thrombin receptor, PAR4” (MONASH UNIVERSITY, priority 2017, dated 2025).
Entries after “also recorded” stand apart in the source; their conditions may differ.

Legend:
[1] = system: hPAR4 peptides 1-9, 8-15 and 11-20; test: Epitope mapping ELISA with overlapping hPAR4 peptides; format: binding, human; details: peptides coated at 10 ug/ml
Experimental: Briefly the peptides were coated onto a Nunc maxisorp ELISA plate at 10 ug/ml overnight in coating buffer (0.1M sodium carbonate pH8.0). Purified mAbs diluted in PBS were used in place of supernatant.

[2] = target: T1, PAR4 (Homo sapiens, UniProt Q96RI0); test: Functional bioassays for PAR4 inhibitory function; format: cell-based
T1 construct: host or cells: HEK293 cells transfected with FLAG-PAR4 and/or isolated human platelets
T1 sequence (Q96RI0 18-385): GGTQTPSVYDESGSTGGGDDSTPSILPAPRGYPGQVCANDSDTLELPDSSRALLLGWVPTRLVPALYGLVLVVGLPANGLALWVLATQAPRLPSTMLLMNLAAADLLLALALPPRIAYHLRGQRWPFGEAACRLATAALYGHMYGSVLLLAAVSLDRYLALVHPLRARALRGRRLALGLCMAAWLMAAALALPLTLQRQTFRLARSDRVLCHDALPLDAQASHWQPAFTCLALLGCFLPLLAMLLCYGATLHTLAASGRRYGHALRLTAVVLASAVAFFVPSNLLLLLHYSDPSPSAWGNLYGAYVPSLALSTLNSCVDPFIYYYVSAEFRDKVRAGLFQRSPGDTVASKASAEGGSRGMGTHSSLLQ

[3] = system: human whole blood; test: Human whole blood thrombosis assay; format: cell-based
Experimental: Human whole blood collected in citrate (3.2%) was pre-incubated for 15 min at 37° C. with PE-conjugated anti-CD9 antibody (4 μg/mL) and an anti-fibrin antibody (5 μg/ml), and one of hirudin (800 U/ml), DMSO (1% v/v), PAR-1 antagonist E5555 (1 μM), anti-PAR4 antibody (0.2 mg/ml) or the combination of both PAR inhibitors. Whole blood was re-calcified with 5-7.5 mM CaCl2 (final concentration) to initiate coagulation, and drawn over glass microslides (1×0.1 mm internal diameter) coated with bovine type 1 collagen (250 μg/ml) at a fixed flow rate of 0.06 ml/min, resulting in a wall shear rate of 600 s^−1. Dual colour confocal fluorescence images were recorded at 488 and 561 nm excitation, collected through a 40× water immersion objective. Confocal z-stacks were continuously recorded for 2 min before modified, calcium-free Tyrode's buffer was flowed over the thrombi and z-stacks encompassing the entire height of the thrombus field were recorded over a period of 10 min. Platelet thrombi were defined using anti-CD9-PE and fibrin volume was quantified using average fluorescence of the thrombus field. Data were normalised against the hirudin baseline and expressed as a percentage of the control.
Thrombosis parameters including platelet deposition, thrombin activity, fibrin volume and ratio of fibrin per thrombus were measured in real-time over a period of 10 minutes in a whole blood thrombosis assay as described herein under conditions of coagulation.
Platelet deposition (PE-conjugated anti-CD9), thrombin activity (FRET-based thrombin probe), fibrin volume (Dylight650-conjugated anti-fibrin antibody) and the ratio of fibrin per thrombus at the 10 minute end-point is shown in FIG. 10A by confocal microscopy (to allow for volume measurements to be taken) using a Nikon Air with a 25× lens and 2× digital magnification.
The volume of human thrombi formed after 3 min was quantified by confocal microscopy in an ex vivo human whole blood thrombosis assay.

[4] = system: PAR4-120Ala and PAR4-120Thr variants; test: PAR4 thrombin cleavage assay on PAR4 variants in HEK293T cells; format: cell-based, human; details: for inhibition of thrombin cleavage of Ala120 and Thr120 PAR4 variants: pre-incubation 1, 10 or 100 μg/ml before thrombin
Experimental: 1×10^6 HEK293T cells (in Dulbecco's modified eagle's medium+10% foetal calf serum) were seeded onto 12-well plates 24 hours before transfection. When confluent, they were transiently transfected with 1 μg of DNA from one of the PAR4 variants (expression vectors pBJ-FLAG-PAR4-120A-296F or pBJ-FLAG-PAR4-120T-296F; Edelstein et al (2014) Blood 124(23):3450-8) plus 4 μL of Lipofectamine 2000, as per manufacturer's instructions. Forty-eight hours after transfection, cells were harvested and washed twice with PBS, then resuspended to a count of 1×10^6/mL. Cells (50 μL assays/0.5×10^5 cells per condition) were then pre-treated with either 1, 10 or 100 μg/mL of 5RC3 or sub-clone 5A.RC3.F10b.H4b or 100 μg/mL matched Isotype control (mouse IgG1) for 15 minutes at 37° C. Cells were then stimulated with 2 U/mL of thrombin for 10 minutes. The reaction was stopped by the addition of 4 U/mL hirudin. Cells were then washed once and resuspended with PBS containing a 1:200 dilution of FITC anti-FLAG antibody (Sigma, clone M2) and incubated for 1 hour at room temperature in the dark. Cells were then fixed with 1% paraformaldehyde (final concentration) and read on a FACSCalibur flow cytometer to determine % of FL1/FITC-Positive events. Data were normalised against the resting sample (100%, no thrombin treatment).
In order to determine whether the anti-PAR4 clones could inhibit the effects of thrombin on PAR4 cleavage, in vitro inhibition assays were performed. HEK293T cells were transiently transfected with the PAR4-120Ala (A) or PAR4-120Thr (T) variants which contained a FLAG epitope upstream of the thrombin cleavage site. Cleavage of PAR4 by thrombin was measured by loss of Flag tag from the PAR4 expressing HEK293 cells using flow cytometry.
Cells were stimulated with increasing doses of thrombin (0.1-2 U/ml) and the amount of thrombin cleavage was measured as a loss of FLAG epitope using a FITC-conjugated anti-FLAG antibody by flow cytometry.

[5] = system: human isolated platelets; test: Binding to human platelets by flow cytometry; details: 10 μg/ml, against isotype control
Experimental: Human or mouse washed platelets (5×10^7/mL) were incubated with anti-PAR4 antibody (0.1 mg/ml) for 30 mins at 37° C. and then fixed with paraformaldehyde 1% v/v final concentration). The suspension was then centrifuged at 1000×g for 2 min to obtain the platelet pellet, which was then resuspended in modified Tyrode's buffer (12 mM NaHCO3, 10 mM HEPES pH 7.4, 137 mM NaCl, 2.7 mM KCl, 5.5 mM D-glucose, 1 mM CaCl2) containing a 1:50 dilution of an FITC-conjugated […] IgG. After 30 mins at room temperature, the samples were centrifuged again, and the platelet pellet was resuspended in modified Tyrode's buffer an analysed by use of a flow cytometer (FACSCalibur, BD Biosciences).
Clone 5A.RC3 was tested for binding to isolated human platelets in vitro. Analysis of binding was determined using flow cytometry. Isolated platelets were incubated with either mouse IgG1 (isotype control) or 5A.RC3 and tested for binding to PAR4. CD41a which is a marker expressed on platelets was used as a positive control.
The binding of five anti-PAR4 monoclonal antibodies to human platelets was examined by flow cytometry.

[6] = 10 minute endpoint, 5A.RC3 100 μg/ml, hirudin 800 U/ml

B1: 5A.RC3: anti-PAR4 monoclonal antibody, IgG2a/K, VH SEQ ID NO:11 and VL SEQ ID NO:12 (antibody, V domains shown)
VH: QVQLVESGGGVVQPGRSLRLSCAASGFTLSNYGMHWVRQAPGKGLEWVSVIWYDGSNKHYADSVKGRFTISRDNSKNTLYLQMNSLRAEDTAVYYCARESIVEVLPPFDYWGQGTLVTVSS
VL: KIVLTQSPGTLSLSPGERVTLSCRASQRVRNNYLAWFQQKPGQAPRLFIYGASSRATGIPDRFSGSGSGTDFIFTISRLEPEDFAVYYCQQYGNSYTFGQGTKLEIK
modifications: VH of 5A.RC3; VL of 5A.RC3
[1]
  hPAR4 peptide the mAb reacted with: amino acid residues 8-15
[2]
  PAR4 inhibitory (antagonist) function: demonstrated PAR4 inhibitory function; also recorded: antagonist
[3]; 100 μg/ml, thrombi formed after 3 min
  total thrombus volume: reduced total thrombus volume
[3]; 10 minute endpoint, 5A.RC3 100 μg/ml
  ratio of fibrin per thrombus volume: significantly inhibited
[3]; [6]
  fibrin volume: significantly inhibited
  platelet deposition: no effect
  thrombin activity: significantly inhibited
[4]
  reversal of inhibition by the immunising peptide: reversed
  inhibition of thrombin cleavage of Ala120 and Thr120 PAR4 variants: near complete inhibition of thrombin cleavage; also recorded: significantly inhibited thrombin induced PAR4 cleavage
[4]; listed as 5A.RC3.H4b
  inhibition of thrombin cleavage of Ala120 and Thr120 PAR4 variants: effectively inhibited cleavage of PAR4 expressed on the surface of HEK293 cells in a dose dependent manner
[5]
  binding to PAR4 on isolated human platelets: binds human PAR4 in isolated platelets
